From patent US9592268B2, “Endothelium protective materials and methods of use” (CORNELL UNIVERSITY, priority 2011, dated 2017) come the findings set out here.

Positions count from the first letter of the chain named. Names and notes keep the numbering of the source.

Assay [1] has as its system HUVEC. Nature of the assay: adherens junction assembly assay (VE-cadherin immunostaining) in HUVEC. The class given is cell-based, human. The settings on record: HUVEC stimulated 1 h; HDL 100 μg/ml; S1P complexes or r-apoM 100 nM. How it is done:
(§1) FIG. 4. ApoM-bound S1P activates S1P1-mediated intracellular signaling pathways and affects migration of HUVEC. (A) Confocal microscopy of HEK293 cells stably expressing S1P1-GFP. Cells were serum starved, stimulated for 1 h with indicated ligands, fixed and imaged. ApoM^+HDL (equivalent to ˜100 nM S1P as determined by LC/MS/MS) or ApoM^−HDL was used at 100 μg/ml. Fatty acid free BSA and r-apoM were complexed with S1P and used at the final concentration of 100 nM (equimolar for both protein and lipid). Scale bar, 20 μm. […] Activation of p44/42, and Akt was examined by western blot analysis using phospho-specific antibodies. (C) HUVEC were serum starved and pre-treated with 1 μM VPC44116 for 30 min where indicated and subjected to migration assay with 10 μg/ml apoM^+HDL (10 nM S1P) or 10 μg/ml apoM^−HDL or 10 nM albumin-S1P. Data are mean±SD, n=3. * p<0.01. (D) Microscopy of HUVEC that were serum starved and stimulated with 100 μg/ml apoM^+HDL, apoM^−HDL, 100 nM albumin-S1P, r-apoM-S1P or 100 nM S1P-free r-apoM for 1 h. […] Scale bar, 20 μm. HUVEC were serum starved and stimulated for 5 min with 30 nM albumin-S1P, r-apoM-S1P, 10 μg/mL ApoM+ HDL, or 30 nM S1P-free r-apoM (E) or with increasing concentrations of albumin or r-apoM-S1P (F). Activation of p44/42 and Akt was examined by Western blot analysis using phospho-specific antibodies. […]

Assay [2] concerns HUVEC. Description: HUVEC migration (chemotaxis chamber) assay. The class given is cell-based, human. How it is done:
as §1, with “μm.” for “μm. HUVEC were serum starved and stimulated for 5 min with 30 nM albumin-S1P, r-apoM-S1P, 10 μg/mL ApoM+ HDL, or 30 nM S1P-free r-apoM (E) or with increasing concentrations of albumin or r-apoM-S1P (F). Activation of p44/42 and Akt was examined by Western blot analysis using phospho-specific antibodies.”
General Methods. […] Numerical differences were analyzed with two-tailed Student's t test.
Migration Assays. […] The filter was scanned, and the color density of each well was quantified using ImageJ software. […]

For another assay, the target named is T1, S1P1 receptor (Homo sapiens, UniProt P21453).
T1 construct: expressed in transfected cells
Nature of the assay: S1P1 internalization in HEK293 cells stably expressing S1P1-GFP. The class given is cell-based. The settings on record: stimulated 1 h; HDL 100 μg/ml; S1P complexes 100 nM. How it is done: as §1, with “(F).” for “(F). Activation of p44/42 and Akt was examined by Western blot analysis using phospho-specific antibodies.”
General Methods. […] Numerical differences were analyzed with two-tailed Student's t test. […]

The test system of another assay is VCAM-1. Nature of the assay: TNFα-induced cell surface VCAM-1 expression in HUVEC by flow cytometry. In kind it is cell-based, human. The settings on record: for suppression of cytokine-induced VCAM-1 expression: human endothelial cells (FIG. 9). How it is done: FIG. 9. ApoM/S1P inhibition of endothelial cell VCAM-1 expression. Human umbilical vein endothelial cells (HUVEC) were treated with TNFα for 3 hr. Some cells were co-treated with recombinant (r)ApoM (100 nM) or rApoM/S1P complex (100 nM) or albumin/S1P complex (100 nM) for the same amount of time. The cells were then analyzed for the cell surface expression of Vascular cell adhesion molecule (VCAM)-1 by flow cytometry. Note that ApoM/S1P complex inhibited (˜40%) TNFα-induced VCAM-1 expression.
Inflammation of vascular endothelial cells is a critical initiating event in atherosclerosis, which leads to heart attacks and strokes. Endothelial cell inflammation is induced by cytokines such as TNFα and IL-1β. When endothelial cells are exposed to such cytokines, an inflammatory program of gene expression is induced, resulting in the formation of adhesion molecules such as VCAM-1, which in turn is needed for the recruitment of monocytes into the blood vessel wall. […] Thus, ApoM/S1P complexes can be used to suppress vascular inflammation as a potential treatment for atherosclerosis.

T1 sequence (P21453 whole entry): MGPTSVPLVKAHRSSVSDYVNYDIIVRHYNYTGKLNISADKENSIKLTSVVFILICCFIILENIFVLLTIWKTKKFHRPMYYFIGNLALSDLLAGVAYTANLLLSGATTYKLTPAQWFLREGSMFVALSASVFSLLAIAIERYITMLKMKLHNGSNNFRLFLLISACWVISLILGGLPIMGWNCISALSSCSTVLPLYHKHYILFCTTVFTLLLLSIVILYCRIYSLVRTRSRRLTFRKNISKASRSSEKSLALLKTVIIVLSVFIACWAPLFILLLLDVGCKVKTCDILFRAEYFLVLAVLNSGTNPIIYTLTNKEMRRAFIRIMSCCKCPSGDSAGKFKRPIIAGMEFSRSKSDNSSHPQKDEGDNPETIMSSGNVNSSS

B1: r-apoM-bound S1P: S1P complexed with equi-molar recombinant apoM (protein, UniProt O95445 1-188, looked up)
Apolipoprotein M: MFHQIWAALLYFYGIILNSIYQCPEHSQLTTLGVDGKEFPEVHLGQWYFIAGAAPTKEELATFDPVDNIVFNMAAGSAPMQLHLRATIRMKDGLCVPRKWIYHLTEGSTDLRTEGRPDMKTELFSSSCPGGIMLNETGQGYQRFLLYNRSPHPPEKCVEEFKSLTSCLDSKAFLLTPRNQEACELSNN
modifications: complexed with S1P
For B1, in the assay on HUVEC [1], the “adherens junction and F-actin formation” value is “well-spread, contained F-actin and formed adherens junctions”. For the same molecule, the “chemoattractant activity compared with albumin-bound S1P” value in the assay with HUVEC [2] (increasing concentrations (FIG. 4G)) is “slightly higher activity”. Moreover, the “chemotaxis of HUVEC toward chemoattractant” value in the assay on HUVEC [2] (serum-starved HUVEC, 4 h at 37° C.) is given as “worked as chemoattractants in a concentration-dependent manner”. In addition, the “internalization of GFP-S1P1 receptor” value in the assay with S1P1 receptor is “induced robust internalization”. Further, the “inhibition of TNFα-induced VCAM-1 expression” value in the assay with VCAM-1 (100 nM, co-treated with TNFα for 3 hr) was roughly 40%. In addition, the “suppression of cytokine-induced VCAM-1 expression” value with VCAM-1 was “significant suppression”.

B2: r-apoM without S1P: recombinant apoM not complexed with S1P (protein, UniProt O95445 1-188, looked up)
Apolipoprotein M: B1 Apolipoprotein M
On to B2, for which, in the assay with HUVEC [1], the “adherens junction and F-actin formation” value is “not efficiently induced”. The “internalization of GFP-S1P1 receptor” value in the assay with S1P1 receptor is “Neither apoM^−HDL nor r-apoM without S1P caused receptor internalization”. Further, in the assay with VCAM-1, the “suppression of cytokine-induced VCAM-1 expression” value was “not seen”.
